The source of these data is US20050181450A1, “Novel inositol 1,4,5-trisphosphate (IP3) receptor-binding protein and an IP3 indicator” (priority 2002, published 2005).

The target of assay [1] is T1, GST-IbIIa (IP3-binding region of mouse IP3R1) (Mus musculus, UniProt P11881).
T1 construct: GST-IbIIa (amino acids 224-604 of mouse IP3R1) and its site-directed mutants K508A and R441Q; made in house
Kind of assay: GST pulldown with GST-IbIIa. The conditions noted are these: IRBIT in high salt extract. An excerpt:
(§1) The cDNAs encoding the full-length and N-terminal region (amino acids 1-104) of IRBIT were subcloned into the Escherichia coli hexahistidine (His) fusion vector pET-23a(+) (Novagen) to generate IRBIT-His and IRBIT(1-104)-His expression vectors, respectively. The same cDNAs were subcloned into the GST fusion vector pGEX-4T-1 (Amersham Pharmacia Biotech) to generate GST-IRBIT and GST-IRBIT(1-104) expression vectors, respectively. The cDNA fragments encoding the amino acids 1-225, 1-343, 341-923, 600-1248, 916-1581 and 1553-1943 of the amino acid sequence (SEQ ID NO: 7) of mouse IP3R1 were inserted into pGEX-KG to generate GST-Ia, GST-Iab, GST-IIab, GST-IIbIIIa, GST-IIIab and GST-IV expression vectors, respectively. The amino acids 1593-2217 of mouse IP3R1 were inserted into pGEX-4T-1 to obtain GST-IV-Va expression vector. These fusion proteins were expressed in Escherichia coli. GST-EL was expressed in Sf9 cells as described above. […]
(§2) For the determination of the IRBIT binding region and the critical amino acid residue of IP3R1, the diluted high salt extract was subjected to pulldown assay as described above with 100 pmol of GST, GST-EL, GST-Ia, GST-Iab, GST-IbIIa, GST-IIab, GST-IIbIIIa, GST-IIIab, GST-IV, GST-IV-Va, K508A or R441Q, and analyzed by Western blotting with anti-IRBIT antibody.

In assay [2] the target is T2, GST-IIab (mouse IP3R1 amino acids 341-923) (Mus musculus, UniProt P11881).
T2 construct: made in house; host or cells: Escherichia coli
The experiment in a line: GST pulldown with GST-IIab. The assay is classed as binding. The conditions noted are these: IRBIT in high salt extract.
From the text: as §1, §2

Assay [3] has as its target T3, type II phosphatidylinositol phosphate kinase β (Homo sapiens, UniProt P78356).
T3 construct: expressed in transfected cells; host or cells: Cos-7
T3 sequence (P78356 1-416): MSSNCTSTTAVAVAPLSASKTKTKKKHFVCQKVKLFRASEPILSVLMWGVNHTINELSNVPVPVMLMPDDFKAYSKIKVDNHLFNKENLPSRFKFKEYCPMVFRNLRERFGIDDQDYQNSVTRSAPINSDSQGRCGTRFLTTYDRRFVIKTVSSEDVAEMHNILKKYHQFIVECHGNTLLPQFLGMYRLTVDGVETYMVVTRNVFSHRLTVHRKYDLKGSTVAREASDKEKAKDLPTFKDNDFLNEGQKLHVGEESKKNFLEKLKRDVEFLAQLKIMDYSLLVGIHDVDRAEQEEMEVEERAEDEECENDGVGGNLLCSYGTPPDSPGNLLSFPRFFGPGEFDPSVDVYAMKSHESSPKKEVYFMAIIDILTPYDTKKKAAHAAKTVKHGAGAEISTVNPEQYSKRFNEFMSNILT
Kind of assay: Co-immunoprecipitation in Cos-7 cells with Myc-PIPKII β. It counts as binding. The conditions noted are these: overexpressing Cos-7 cells. How it is done:
(A and B) IRBIT was transfected into Cos-7 cells with Myc-tagged type II phosphatidylinositol phosphate kinase α, β or γ (PIPKII α, β or γ). After two days, cells were lysed in lysis buffer, followed by centrifugation (100,000×g, 30 min). The supernatants were incubated with 3 μg of anti-IRBIT antibody, rabbit IgG, mouse anti-Myc antibody, or mouse IgG for 1 h at 4° C. After adding 5 μl of Protein G beads and another 1-h incubation, the beads were washed five times with lysis buffer and analyzed by Western blotting with anti-IRBIT antibody or HRP conjugated anti-Myc antibody. Immunoprecipitation of Myc-PIPKII α, β or γ with anti-Myc antibody co-precipitated IRBIT (A). In the reciprocal experiments, immunoprecipitation of IRBIT with anti-IRBIT antibody precipitated Myc-PIPKII α, β or γ.
IRBIT was transfected into Cos-7 cells with Myc-tagged type II phosphatidylinositol phosphate kinase α, β or γ (PIPKII α, β or γ). After two days, cells were lysed in lysis buffer, followed by centrifugation (100,000×g, 30 min). The supernatants were incubated with 3 μg of anti-IRBIT antibody, rabbit IgG, mouse anti-Myc antibody, or mouse IgG for 1 h at 4° C. After adding 5 μl of Protein G beads and another 1-h incubation, the beads were washed five times with lysis buffer and analyzed by Western blotting with anti-IRBIT antibody or HRP conjugated anti-Myc antibody.

T2 sequence (P11881 341-923): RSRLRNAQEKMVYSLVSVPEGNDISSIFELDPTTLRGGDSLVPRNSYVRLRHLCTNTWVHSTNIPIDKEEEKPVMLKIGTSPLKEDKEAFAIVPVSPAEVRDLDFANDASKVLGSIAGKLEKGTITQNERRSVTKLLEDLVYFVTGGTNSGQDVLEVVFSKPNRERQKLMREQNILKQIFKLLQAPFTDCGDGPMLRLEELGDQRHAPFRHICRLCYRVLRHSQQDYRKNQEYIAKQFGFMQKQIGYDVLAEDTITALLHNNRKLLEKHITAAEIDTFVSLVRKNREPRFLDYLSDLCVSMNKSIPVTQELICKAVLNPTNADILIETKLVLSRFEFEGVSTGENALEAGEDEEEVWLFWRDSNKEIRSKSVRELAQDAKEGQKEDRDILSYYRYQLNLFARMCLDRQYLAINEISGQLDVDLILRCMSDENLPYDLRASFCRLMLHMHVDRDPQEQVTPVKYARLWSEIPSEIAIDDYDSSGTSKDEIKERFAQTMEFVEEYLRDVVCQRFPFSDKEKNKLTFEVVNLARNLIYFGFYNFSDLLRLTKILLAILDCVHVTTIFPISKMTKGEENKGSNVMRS
T1 sequence (P11881 224-604): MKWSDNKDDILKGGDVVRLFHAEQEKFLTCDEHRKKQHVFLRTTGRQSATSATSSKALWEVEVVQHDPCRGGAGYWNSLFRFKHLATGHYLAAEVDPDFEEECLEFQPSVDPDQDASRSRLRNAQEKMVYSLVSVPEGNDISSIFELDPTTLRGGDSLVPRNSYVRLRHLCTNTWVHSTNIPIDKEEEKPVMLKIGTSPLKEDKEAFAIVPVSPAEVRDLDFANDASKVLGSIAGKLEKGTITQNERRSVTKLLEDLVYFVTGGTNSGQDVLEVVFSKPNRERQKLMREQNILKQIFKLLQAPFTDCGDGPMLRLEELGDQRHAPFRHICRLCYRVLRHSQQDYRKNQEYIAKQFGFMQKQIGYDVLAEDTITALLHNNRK

B1: IRBIT: novel IP3 receptor-binding protein of 530 amino acids, SEQ ID NO: 1 (protein, listed as Mus musculus)
chain: MSMPDAMPLPGVGEELKQAKEIEDAEKYSFMATVTKAPKKQIQFADDMQEFTKFPTKTGRRSLSRSISQSSTDSYSSAASYTDSSDDEVSPREKQQTNSKGSSNFCVKNIKQAEFGRREIEIAEQDMSALISLRKRAQGEKPLAGAKIVGCTHITAQTAVLIETLCALGAQCRWSACNIYSTQNEVAAALAEAGVAVFAWKGESEDDFWWCIDRCVNMDGWQANMILDDGGDLTHWVYKKYPNVFKKIRGIVEESVTGVHRLYQLSKAGKLCVPAMNVNDSVTKQKFDNLYCCRESILDGLKRTTDVMFGGKQVVVCGYGEVGKGCCAALKALGAIVYITEIDPICALQACMDGFRVVKLNEVIRQVDVVITCTGNKNVVTREHLDRMKNSCIVCNMGHSNTEIDVTSLRTPELTWERVRSQVDHVIWPDGKRVVLLAEGRLLNLSCSTVPTFVLSITATTQALALIELYNAPEGRYKQDVYLLPKKMDEYVASLHLPSFDAHLTELTDDQAKYLGLNKNGPFKPNYYRY
In the case of B1, in assay [1], the “binding to GST-IbIIa” value is given as “to the same extent as GST-EL”. Also, in assay [2], the “interaction with GST-IIab” value is listed as “did not interact”. In assay [3], the “interaction with PIPKII β” value is given as “interacted”.
